{
  "source": "paper PMC9820303",
  "about": "“^αN-Acetyl β-Endorphin Is an Endogenous Ligand of σ1Rs That Regulates Mu-Opioid Receptor Signaling by Exchanging G Proteins for σ2Rs in σ1R Oligomers” (International Journal of Molecular Sciences, 2022)",
  "target": "T1, σ1R oligomers-G proteins (Gi2, Go, Gq-11, Gz) (Mus musculus, UniProt O55242)",
  "T1 construct": "The coding region of the full-length murine σ1R (AF004927); GST (N); made in house; host or cells: E. coli BL21 (KRX) for σ1R; the G proteins come from solubilised mouse cerebral cortex synaptosomal membranes",
  "T1 sequence (O55242 whole entry)": "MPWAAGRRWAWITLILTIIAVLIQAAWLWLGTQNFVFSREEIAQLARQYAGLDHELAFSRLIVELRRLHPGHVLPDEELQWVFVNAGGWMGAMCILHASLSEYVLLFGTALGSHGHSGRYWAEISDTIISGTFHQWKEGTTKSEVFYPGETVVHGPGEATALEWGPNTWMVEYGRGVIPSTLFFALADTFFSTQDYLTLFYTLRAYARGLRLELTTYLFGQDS",
  "assay": "Ex vivo fishing assay: G proteins of mouse solubilized brain membranes (SBM) bound to agarose-σ1R oligomers",
  "assay_type": "biochemical",
  "settings": "for effect on G protein binding to agarose-σ1R oligomers: 2 h, increasing concentrations, n = 3",
  "description": "(A) The effect of σ1R deletion on opioid- and cannabinoid-induced analgesia. Analgesic compounds were icv-injected into wild-type and σ1R^−/− mice, and analgesia was evaluated 30 min after morphine (3 nmol) and β-End 1–31 (0.5 nmol), 15 min after DAMGO (0.1 nmol) and DPDPE (10 nmol) and 10 min after WIN55,212-2 (15 nmol). The bars are the mean ± SD of eight mice per strain and treatment. * Significant difference with respect to the effect of the analgesic substance in the wild-type group. ANOVA followed by the Holm–Sidak multiple comparisons test, p < 0.05, 1-β > 0.80. (B) Coprecipitation of G proteins with MORs. Solubilized mouse brain cortical membranes enriched in synaptosomes (SBM) from CD1 wild-type (WT) and σ1R^−/− mice were solubilized with sonication in the presence of 1% NP-40. Non-soluble debris was eliminated, and the samples were then incubated overnight at 4 °C with affinity-purified biotinylated IgGs that were raised against extracellular regions of the MOR. Protein complexes that were immunoprecipitated with streptavidin agarose were extensively washed and then resolved by SDS-PAGE. The target G proteins, alpha and beta subunits, were visualized by Western blotting (for further details, see Section 4). IP: immunoprecipitated protein, WB: Western blot. Detection of MORs: these proteins were detected with an anti-MOR antibody directed to the C-terminal sequence, a different amino acid sequence than that used for immunoprecipitation (second extracellular loop-2EL). In parallel blots, an antibody directed to the light IgG chain of the anti-MOR antibodies used for immunoprecipitation of MORs provided a loading control for the samples in the gels. […] The immunosignals of Gα subunits coprecipitated with MORs were referred to those of the MORs. Data are the mean ± SD of three determinations. ANOVA followed by the Holm–Sidak multiple comparisons test, p < 0.05, 1-β > 0.80. (C) Pull-down assays using mouse SBM. Cerebral cortex fractions enriched in synaptosomes from CD1 WT mice were solubilized with RIPA buffer and incubated for 2 h with recombinant σ1Rs covalently attached to agarose-NHS (Θ-σ1R). Agarose pellets containing the bound proteins were resolved by SDS-PAGE, and the G protein α subunits were probed in Western blots. The capture of σ1Rs and σ2Rs by Θ-σ1R was also determined in SBM from WT, σ1R^−/− and σ2R^−/− mice. […] Representative blots are shown. (D) Effect of ligands on the association of endogenous G proteins present in mouse SBM with Θ-σ1R oligomers produced in vitro (see Section 4). The Θ-σ1Rs were incubated with the SBM in the absence and presence of increasing concentrations of σ1R ligands. The G proteins that remained bound to Θ-σ1R oligomers were determined as in (C). […] For each compound and concentration studied data are the mean ± SD, n = 3. Data were analyzed by pairwise Holm–Sidak multiple comparison tests following ANOVA: p < 0.05, 1-β > 0.80.\nFor fishing studies, solubilization of neural synaptosomes from cerebral cortices or PAG was carried out at 4 °C in RIPA buffer. The membranes were incubated at 4 °C for 16 h with agitation, and then centrifuged at 10,000× g for 5 min. The supernatant was cleared with 20 μL of Sepharose 4B (#17-0120-01, GE Healthcare) pre-equilibrated for 1 h at 4 °C, followed by centrifugation at 4300× g for 5 min. The σ1R was immobilized through covalent attachment to N-Hydroxysuccinimide (NHS)-activated Sepharose 4 fast flow (4FF, #17-0906-01; GE) according to the manufacturer’s instructions.",
  "data": [
    {"compound": "Cl.O=C(OCCN1CCOCC1)C1(c2ccccc2)CCCCC1", "note": "[PRE084, 2-(4-morpholinethyl)-1-phenylcyclohexanecarboxylate hydrochloride, reference compound]", "values": [
      {"measurement": "effect on G protein binding to agarose-σ1R oligomers", "setting": "wild-type SBM", "value": "did not disrupt G protein binding to σ1R oligomers but increased the binding to Gz proteins"}
    ]},
    {"compound": "Cc1cc(OCCN2CCOCC2)nn1-c1ccc2ccccc2c1", "note": "[S1RA]", "values": [
      {"measurement": "effect on G protein binding to agarose-σ1R oligomers", "setting": "wild-type SBM", "value": "exhibited G-protein-releasing effects"}
    ]},
    {"compound": "KKGE [β-End 28–31, C-terminal tetrapeptide of β-End 1–31]", "values": [
      {"measurement": "effect on G protein binding to agarose-σ1R oligomers", "setting": "wild-type SBM", "value": "showed G-protein-releasing effects"}
    ]},
    {"compound": "^αN-acetyl β-End 1–31: β-End 1–31 acetylated at N terminal Y1, α position", "values": [
      {"measurement": "release of G proteins from σ1R oligomers in the absence of σ2Rs", "setting": "SBM from σ2R−/− mice", "value": "failed to release G proteins from σ1R oligomers"},
      {"measurement": "concentrations needed for Gz to be freed from σ1R oligomers", "setting": "wild-type SBM", "value": "pM concentrations"},
      {"measurement": "concentrations releasing Go, Gq-11 and Gi2 proteins from σ1R oligomers", "setting": "wild-type SBM", "value": "fM concentrations"},
      {"measurement": "effect on G protein binding to agarose-σ1R oligomers", "setting": "wild-type SBM", "value": "efficiently released G proteins from agarose-σ1Rs"}
    ]},
    {"compound": "β-End 1–26: β-End 1–31 derivative without 5 C-terminal residues (YGGFMTSEKSQTPLVTLFKNAIIKNA; Beta-endorphin; UniProt P01189 237-262, looked up, fragment)", "values": [
      {"measurement": "effect on G protein binding to agarose-σ1R oligomers", "setting": "wild-type SBM", "value": "showed G-protein-releasing effects"}
    ]},
    {"compound": "β-End 1–27: β-End 1–31 derivative without 4 C-terminal residues (YGGFMTSEKSQTPLVTLFKNAIIKNAY; Beta-endorphin; UniProt P01189 237-263, looked up, fragment)", "values": [
      {"measurement": "effect on G protein binding to agarose-σ1R oligomers", "setting": "wild-type SBM", "value": "showed G-protein-releasing effects"}
    ]}
  ]
}
